Here are results for 4 molecules from patent publication US20180133314A1 (Daiichi Sankyo, published 2018).

The target of test [1] is T1, human FGFR3 IIIc variant protein (human, UniProt P22607 23-806). Description: immunostaining of formalin-fixed, paraffin-embedded transfected 293alpha cell blocks (denatured), proteinase K retrieval.
Test [2] addresses T2, human FGFR1 IIIc variant protein (human, UniProt P11362 22-822). The description is as above.
The target of test [3] is T3, human FGFR2 IIIb variant protein (human, UniProt P21802-3 22-822).
T3 construct: whole, on cells; also called hFGFR2 IIIb
T3 sequence (P21802 other isoform, or with tags, fused parts or gaps mutant limits assumed): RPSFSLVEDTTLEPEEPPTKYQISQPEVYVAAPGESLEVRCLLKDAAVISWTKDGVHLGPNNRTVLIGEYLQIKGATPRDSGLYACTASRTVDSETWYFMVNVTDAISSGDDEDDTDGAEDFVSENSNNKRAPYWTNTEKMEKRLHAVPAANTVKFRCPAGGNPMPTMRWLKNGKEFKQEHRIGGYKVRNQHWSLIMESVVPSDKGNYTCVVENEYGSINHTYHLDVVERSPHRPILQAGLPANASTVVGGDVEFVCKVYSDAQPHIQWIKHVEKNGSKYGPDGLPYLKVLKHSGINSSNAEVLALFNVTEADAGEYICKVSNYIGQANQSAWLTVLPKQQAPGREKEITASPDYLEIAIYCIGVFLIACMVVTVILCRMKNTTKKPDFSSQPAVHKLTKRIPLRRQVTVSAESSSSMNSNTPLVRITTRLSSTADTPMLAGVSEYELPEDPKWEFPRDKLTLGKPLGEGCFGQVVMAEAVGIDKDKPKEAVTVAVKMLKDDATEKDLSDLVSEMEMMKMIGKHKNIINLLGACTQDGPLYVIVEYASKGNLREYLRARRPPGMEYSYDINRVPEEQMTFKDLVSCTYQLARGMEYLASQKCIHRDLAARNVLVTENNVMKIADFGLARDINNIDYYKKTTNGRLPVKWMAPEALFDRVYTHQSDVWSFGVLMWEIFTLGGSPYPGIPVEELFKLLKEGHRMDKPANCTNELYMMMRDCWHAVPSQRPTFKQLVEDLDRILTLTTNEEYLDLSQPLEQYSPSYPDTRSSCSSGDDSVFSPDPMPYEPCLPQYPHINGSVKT
The description is as above.

The target in test [4] is T4, human FGFR2 IIIc variant protein (human, UniProt P21802 22-821).
T4 construct: also called hFGFR2 IIIc
T4 sequence (P21802 22-821 limits assumed, change not shown): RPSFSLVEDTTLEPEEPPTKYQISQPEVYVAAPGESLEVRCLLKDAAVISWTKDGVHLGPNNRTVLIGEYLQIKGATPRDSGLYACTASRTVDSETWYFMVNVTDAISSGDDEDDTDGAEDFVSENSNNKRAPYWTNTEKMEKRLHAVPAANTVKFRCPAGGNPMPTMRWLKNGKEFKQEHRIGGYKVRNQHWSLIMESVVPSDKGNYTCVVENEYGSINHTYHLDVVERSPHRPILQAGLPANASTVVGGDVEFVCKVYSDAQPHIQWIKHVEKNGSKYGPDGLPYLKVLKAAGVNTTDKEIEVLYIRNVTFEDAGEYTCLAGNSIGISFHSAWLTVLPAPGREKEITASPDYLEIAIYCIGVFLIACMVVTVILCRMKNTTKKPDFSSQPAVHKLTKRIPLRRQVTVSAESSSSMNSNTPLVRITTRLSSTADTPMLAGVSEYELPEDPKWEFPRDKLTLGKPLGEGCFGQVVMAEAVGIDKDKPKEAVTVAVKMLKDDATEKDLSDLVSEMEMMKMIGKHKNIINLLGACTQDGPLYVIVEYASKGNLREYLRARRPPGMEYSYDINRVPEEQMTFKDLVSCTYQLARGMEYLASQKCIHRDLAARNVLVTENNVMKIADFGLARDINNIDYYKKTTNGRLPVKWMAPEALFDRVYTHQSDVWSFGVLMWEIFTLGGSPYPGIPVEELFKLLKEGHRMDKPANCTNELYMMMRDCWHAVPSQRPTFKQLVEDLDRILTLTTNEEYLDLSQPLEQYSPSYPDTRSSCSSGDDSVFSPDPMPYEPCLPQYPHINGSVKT
Put plainly: flow cytometry, hybridoma culture supernatant on transfected HEK293T cells. The protocol:
HEK293T cells were inoculated at a density of 5×10⁴ cells/cm² to a 225-cm² flask (manufactured by Sumitomo Bakelite Co., Ltd.) and cultured overnight at 37° C. under 5% CO₂ conditions in a DMEM medium containing 10% FBS. On the next day, the pcDNA-DEST40-FGFR2 IIIc, the pcDNA-DEST40-FGFR2 IIIb or a control pcDNA-DEST40 was transfected to the HEK293T cells using Lipofectamine 2000, and the cells were further cultured overnight at 37° C. under 5% CO₂ conditions. On the next day, the expression vector-transfected HEK293T cells were treated with TrypLE Express (manufactured by Life Technologies Corp.), washed with DMEM containing 10% FBS, and then suspended in PBS containing 5% FBS. The obtained cell suspension was used in flow cytometry analysis.
The pcDNA-DEST40-FGFR2 IIIc and pcDNA-DEST40-FGFR2 IIIb binding specificity of the antibody produced by each hybridoma determined to be positive by Cell-ELISA in Example 1)-4 was further confirmed by flow cytometry. Each HEK293T cell suspension prepared in Example 1)-5-1 was centrifuged to remove a supernatant. […] The data was analyzed using Flowjo (manufactured by Tree Star Inc.). After removal of 7-aminoactinomycin D-positive dead cells by gating, the FITC fluorescence intensity of live cells was plotted to a histogram.
For orientation: Flow cytometry measures light scatter and fluorescence of single cells or particles in a stream.

For test [5], the target named is T4, human FGFR2 IIIc variant protein. Description: immunostaining of formalin-fixed, paraffin-embedded transfected 293alpha cell blocks (denatured), 15 µg/mL. The protocol:
The cells were transfected with the FGFR1 IIIb, FGFR1 IIIc, FGFR2 IIIb, FGFR2 IIIc, FGFR3 IIIb, FGFR3 IIIc, or FGFR4 expression vector constructed in Examples 1)-3-1, 1)-3-2, and 1)-3-3 or an empty vector, i.e., pcDNA-DEST40-FGFR1 IIIb, pcDNA-DEST40-FGFR1 IIIc, pcDNA-DEST40-FGFR2 IIIb, pcDNA-DEST40-FGFR2 IIIc, pcDNA-DEST40-FGFR3 IIIb, pcDNA-DEST40-FGFR3 IIIc, pcDNA-DEST40-FGFR4, or pcDNA-DEST40 using FuGENE 6 (manufactured by Roche Diagnostics K.K.) and cultured for two nights at 37° C. under 5% CO₂ conditions. The obtained cells were recovered using TrypLE Express (manufactured by Life Technologies Corp.) and centrifuged to obtain a pellet, which was then washed once with PBS and centrifuged. The resulting pellet was fixed in 20% neutral buffered formalin.
Each sample was stained using an automatic staining apparatus (LEICA BOND-III; manufactured by Leica Biosystems Nussloch GmbH). For deparaffinization, the sample was heated to 72° C., then Bond Dewax Solution (manufactured by Leica Biosystems Nussloch GmbH) was added thereto, and the sample was incubated for 30 seconds, followed by addition of ethanol and washing 4 times with Bond Wash Solution (manufactured by Leica Biosystems Nussloch GmbH). Enzyme Proteinase K (IHC) (manufactured by Leica Biosystems Nussloch GmbH) diluted 200-fold was added thereto, and the sample was incubated at 37° C. for 5 minutes. […]

Test [6] has as its target T3, human FGFR2 IIIb variant protein. Description: flow cytometry on transfected HEK293T cells (non-denatured). The text has this: (§1) The binding specificity of the mouse chimeric FR2-2nd_#028 and the mouse chimeric FR2-2nd_#023 prepared in Example 3)-7 for non-denatured molecules of the FGFR family was confirmed by flow cytometry. Each HEK293T cell suspension prepared in Example 3)-8-1 was centrifuged to remove a supernatant. Then, the pcDNA-DEST40-FGFR1 IIIb-, pcDNA-DEST40-FGFR1 IIIc-, pcDNA-DEST40-FGFR2 IIIb-, pcDNA-DEST40-FGFR2 IIIc-, pcDNA-DEST40-FGFR3 IIIb-, pcDNA-DEST40-FGFR3 IIIc-, pcDNA-DEST40-FGFR4-, or pcDNA-DEST40-transfected HEK293T cells were suspended by the addition of a negative control mouse IgG1 (manufactured by R&D Systems, Inc.) or the mouse chimeric FR2-2nd_#028 or the mouse chimeric FR2-2nd_#023 adjusted to 5 μg/ml, and left standing at 4° C. for 1 hour. The cells were washed once with PBS containing 5% FBS, then suspended by the addition of Fluorescein-Conjugated Goat IgG Fraction to Mouse IgG (manufactured by MP Biomedicals, Inc.) diluted 500-fold with PBS containing 5% FBS, and left standing at 4° C. for 1 hour. […] The data was analyzed using Flowjo (manufactured by Tree Star Inc.). After removal of 7-aminoactinomycin D-positive dead cells by gating, the average fluorescence intensity (MFI) of the FITC of live cells was calculated (FIG. 1).

The target of test [7] is T1, human FGFR3 IIIc variant protein. Put plainly: immunostaining of formalin-fixed, paraffin-embedded transfected 293alpha cell blocks (denatured), heat retrieval.
Test [8] has as its target T2, human FGFR1 IIIc variant protein. The test is described as above.
Test [9] deals with T4, human FGFR2 IIIc variant protein. Description: immunostaining of formalin-fixed, paraffin-embedded blocks of 293alpha cells forced to express FGFR2 IIIc; antibody at 15 ug/mL, heat retrieval.
The target in test [10] is T3, human FGFR2 IIIb variant protein. Description: immunostaining of formalin-fixed, paraffin-embedded blocks of 293alpha cells forced to express FGFR2 IIIb; antibody at 15 ug/mL, heat retrieval.
The target is the same in test [11]. The description is as above. The source holds these as a separate data set.
Test [12] has as its target T4, human FGFR2 IIIc variant protein. Description: immunostaining of formalin-fixed, paraffin-embedded blocks of 293alpha cells forced to express FGFR2 IIIc; antibody at 15 ug/mL, heat retrieval. This is another data set of the same source.
Test [13] deals with T1, human FGFR3 IIIc variant protein. Put plainly: flow cytometry on transfected HEK293T cells (non-denatured).
Source text: as §1

T2 sequence (P11362 22-822 limits assumed, change not shown): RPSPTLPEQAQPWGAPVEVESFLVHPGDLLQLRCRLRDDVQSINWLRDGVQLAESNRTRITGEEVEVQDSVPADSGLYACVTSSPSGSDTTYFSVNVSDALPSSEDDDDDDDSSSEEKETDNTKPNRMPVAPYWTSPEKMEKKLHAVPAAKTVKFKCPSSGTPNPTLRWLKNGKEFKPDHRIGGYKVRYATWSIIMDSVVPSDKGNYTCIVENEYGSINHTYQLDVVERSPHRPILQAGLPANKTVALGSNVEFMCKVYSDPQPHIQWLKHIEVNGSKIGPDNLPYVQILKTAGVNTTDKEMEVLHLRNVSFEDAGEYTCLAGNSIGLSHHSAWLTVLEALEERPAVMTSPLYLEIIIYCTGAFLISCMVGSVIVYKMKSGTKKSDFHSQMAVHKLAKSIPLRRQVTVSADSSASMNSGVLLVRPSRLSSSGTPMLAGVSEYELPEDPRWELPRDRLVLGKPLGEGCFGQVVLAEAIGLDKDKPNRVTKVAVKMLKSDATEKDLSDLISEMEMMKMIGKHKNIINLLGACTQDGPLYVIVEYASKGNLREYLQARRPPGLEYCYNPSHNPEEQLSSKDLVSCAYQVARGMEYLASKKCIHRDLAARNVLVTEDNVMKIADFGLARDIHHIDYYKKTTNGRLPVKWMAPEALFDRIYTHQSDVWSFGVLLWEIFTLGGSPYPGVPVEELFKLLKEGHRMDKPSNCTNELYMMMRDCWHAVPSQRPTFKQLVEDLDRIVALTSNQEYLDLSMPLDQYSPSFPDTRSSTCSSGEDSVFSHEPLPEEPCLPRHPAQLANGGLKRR
T1 sequence (P22607 23-806 limits assumed, change not shown): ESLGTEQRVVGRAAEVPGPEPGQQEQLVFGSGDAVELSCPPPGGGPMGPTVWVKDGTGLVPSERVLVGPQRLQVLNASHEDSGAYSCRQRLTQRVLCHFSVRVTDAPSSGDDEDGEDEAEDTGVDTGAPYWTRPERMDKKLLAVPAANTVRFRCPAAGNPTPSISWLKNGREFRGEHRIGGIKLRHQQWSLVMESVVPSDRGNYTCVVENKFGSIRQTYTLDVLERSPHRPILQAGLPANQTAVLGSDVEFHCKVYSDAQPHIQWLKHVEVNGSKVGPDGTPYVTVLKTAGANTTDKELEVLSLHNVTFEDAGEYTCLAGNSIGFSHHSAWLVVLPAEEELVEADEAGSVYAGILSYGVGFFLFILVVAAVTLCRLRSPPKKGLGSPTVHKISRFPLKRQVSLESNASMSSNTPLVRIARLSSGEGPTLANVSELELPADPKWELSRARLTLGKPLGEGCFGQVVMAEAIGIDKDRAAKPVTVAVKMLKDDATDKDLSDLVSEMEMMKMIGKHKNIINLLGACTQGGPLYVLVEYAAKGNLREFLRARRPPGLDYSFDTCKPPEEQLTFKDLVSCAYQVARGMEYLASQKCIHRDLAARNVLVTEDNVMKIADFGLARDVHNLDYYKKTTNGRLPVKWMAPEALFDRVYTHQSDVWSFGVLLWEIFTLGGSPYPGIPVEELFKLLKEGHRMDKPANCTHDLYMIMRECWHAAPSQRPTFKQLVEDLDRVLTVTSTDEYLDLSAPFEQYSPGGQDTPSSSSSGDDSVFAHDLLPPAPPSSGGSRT

B1: rat anti-FGFR2 antibody FR2-2nd_#028 (antibody, V domains shown)
VH: EVQLVESGGGLVQPGRSLKLSCAASGFTFSDYGMAWVRQAPTKGLEWVATISYDGSSTYYRDSVKGRFTISRENAKSTLSLQMDSLRSEDTATYYCTRHPTYYYIMDAWGQGASVTVSS
VL: DTVLTQSPALAVSLGQRVTISCRASKSVSTFMNWYQQKSGQQPKLLIYRASNLESGVPSRFSGSGSGTDFTLTIDPVEADDIANYYCQQSNELPLTFGSGTKLEIKR
notes: Rat monoclonal from hybridoma; also called rat FR2-2nd_#028; rat antibody FR2-2nd_#028
With B1, the binding result is “no binding (tested: 15 µg/mL)” in test [1], “no binding (tested: 15 µg/mL)” in [2], “no binding (tested: 15 µg/mL)” in test [3] and “binds” in [4].

B2: mouse chimeric anti-FGFR2 antibody FR2-2nd_#028 (antibody, mouse IgG1, kappa, V domains shown)
VH: EVQLVESGGGLVQPGRSLKLSCAASGFTFSDYGMAWVRQAPTKGLEWVATISYDGSSTYYRDSVKGRFTISRENAKSTLSLQMDSLRSEDTATYYCTRHPTYYYIMDAWGQGASVTVSS
VL: DTVLTQSPALAVSLGQRVTISCRASKSVSTFMNWYQQKSGQQPKLLIYRASNLESGVPSRFSGSGSGTDFTLTIDPVEADDIANYYCQQSNELPLTFGSGTKLEIKR
notes: The full-chain entries may include a secretory signal; also called mouse chimeric FR2-2nd_#028; mouse IgG1 chimeric FR2-2nd_#028
B2: the binding result was “binds” in test [5], “no binding (tested: 15 µg/mL)” in test [1], “no binding (tested: 15 µg/mL)” in [2] and “no binding (tested: 5 µg/ml)” in test [6].

B3: rat anti-FGFR2 antibody FR2-2nd_#023 (antibody, V domains shown)
VH: EVQLVESGGGLVQPGRSMKLSCAASGLTFSNYGMAWVRQAPKKGLEWVAFISHDGGSSYYRDSVEGRFIISRDNAKSTLSLQMDSLRSEDTATYYCTTAGDYYSDNDWYFDFWGPGIMVTVSS
VL: DIQMTQSPSLLSASVGDRVTLSCKASQSIYNSLAWYQQKLGEAPKLLIYDADSLQTGIPSRFSGSGSGTDYTLTISSLQPEDVATYFCQKYYSGWTFGGGTKLELKR
notes: Rat monoclonal from hybridoma; also called rat FR2-2nd_#023; rat antibody FR2-2nd_#023
Consider B3, for which the binding result is “no binding (tested: 15 µg/mL)” in test [7], “no binding (tested: 15 µg/mL)” in test [8], “binds” in test [9] and “binds” in test [10].

B4: mouse chimeric anti-FGFR2 antibody FR2-2nd_#023 (antibody, mouse IgG1, kappa, V domains shown)
VH: EVQLVESGGGLVQPGRSMKLSCAASGLTFSNYGMAWVRQAPKKGLEWVAFISHDGGSSYYRDSVEGRFIISRDNAKSTLSLQMDSLRSEDTATYYCTTAGDYYSDNDWYFDFWGPGIMVTVSS
VL: DIQMTQSPSLLSASVGDRVTLSCKASQSIYNSLAWYQQKLGEAPKLLIYDADSLQTGIPSRFSGSGSGTDYTLTISSLQPEDVATYFCQKYYSGWTFGGGTKLELKR
notes: The full-chain entries may include a secretory signal; also called mouse chimeric FR2-2nd_#023; mouse IgG1 chimeric FR2-2nd_#023
Turning to B4, the binding result in test [8] was “no binding (tested: 15 µg/mL)”; in test [11], “binds”; in [12] it was “binds”; in [13], “no binding (tested: 5 µg/ml)”.
